From paper PMC3035177 (Chemistry & biology, 2005)

Target: T1, DnaG primase (purified) (B. stearothermophilus, UniProt Q9X4D0 1-597)
T1 sequence (looked up): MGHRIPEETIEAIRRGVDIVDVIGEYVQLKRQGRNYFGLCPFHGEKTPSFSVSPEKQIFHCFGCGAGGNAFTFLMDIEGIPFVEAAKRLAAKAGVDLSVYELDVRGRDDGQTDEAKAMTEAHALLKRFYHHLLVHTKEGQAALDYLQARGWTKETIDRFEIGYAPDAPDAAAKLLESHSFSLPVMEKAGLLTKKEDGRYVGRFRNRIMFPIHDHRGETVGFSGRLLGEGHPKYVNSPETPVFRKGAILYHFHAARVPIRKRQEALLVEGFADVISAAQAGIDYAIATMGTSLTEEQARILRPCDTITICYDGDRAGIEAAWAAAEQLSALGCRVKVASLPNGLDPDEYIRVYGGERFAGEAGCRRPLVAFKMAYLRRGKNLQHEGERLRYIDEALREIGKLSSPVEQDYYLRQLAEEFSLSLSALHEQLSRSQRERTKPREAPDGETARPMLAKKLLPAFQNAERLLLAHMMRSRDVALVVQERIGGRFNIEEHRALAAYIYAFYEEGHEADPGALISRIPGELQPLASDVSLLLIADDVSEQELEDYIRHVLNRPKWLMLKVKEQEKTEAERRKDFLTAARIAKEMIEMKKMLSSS
Experiment: SEC

B1: DnaB helicase (purified) (enzyme, B. stearothermophilus, UniProt Q9X4C9 1-454, looked up)
chain: MSELFSERIPPQSIEAEQAVLGAVFLDPAALVPASEILIPEDFYRAAHQKIFHAMLRVADRGEPVDLVTVTAELAASEQLEEIGGVSYLSELADAVPTAANVEYYARIVEEKSVLRRLIRTATSIAQDGYTREDEIDVLLDEADRKIMEVSQRKHSGAFKNIKDILVQTYDNIEMLHNRDGEITGIPTGFTELDRMTSGFQRSDLIIVAARPSVGKTAFALNIAQNVATKTNENVAIFSLEMSAQQLVMRMLCAEGNINAQNLRTGKLTPEDWGKLTMAMGSLSNAGIYIDDTPSIRVSDIRAKCRRLKQESGLGMIVIDYLQLIQGSGRSKENRQQEVSEISRSLKALARELEVPVIALSQLSRSVEQRQDKRPMMSDIRESGSIEQDADIVAFLYRDDYYNKDSENKNIIEIIIAKQRNGPVGTVQLAFIKEYNKFVNLERRFDEAQIPPGA
binding result: binds
